Target: cytosolic carboxypeptidase 6 (CCP6), endogenous (human (endogenous in HEK 293T)) (UniProt Q5VU57)
Experiment: proximity ligation; Duolink PLA in HEK 293T cells fixed with 4% paraformaldehyde; primary antibodies against the two proteins; confocal microscopy; three independent experiments, at least 75 cells in total

Chain of UniProt Q5VU57 (Q5VU57 whole entry): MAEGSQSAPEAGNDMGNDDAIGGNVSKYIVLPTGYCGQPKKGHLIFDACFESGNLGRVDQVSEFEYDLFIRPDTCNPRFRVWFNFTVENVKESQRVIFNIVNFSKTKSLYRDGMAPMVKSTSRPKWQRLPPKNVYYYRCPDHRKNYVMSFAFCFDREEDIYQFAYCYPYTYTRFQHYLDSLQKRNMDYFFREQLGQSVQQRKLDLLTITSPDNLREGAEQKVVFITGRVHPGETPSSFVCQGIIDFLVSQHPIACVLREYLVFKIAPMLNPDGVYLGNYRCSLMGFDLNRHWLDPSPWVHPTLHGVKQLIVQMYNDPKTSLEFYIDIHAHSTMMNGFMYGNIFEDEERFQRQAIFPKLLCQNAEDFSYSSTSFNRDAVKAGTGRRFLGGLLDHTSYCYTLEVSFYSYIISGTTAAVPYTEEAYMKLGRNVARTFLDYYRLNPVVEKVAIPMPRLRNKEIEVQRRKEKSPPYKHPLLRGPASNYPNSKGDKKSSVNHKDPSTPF

Row | percent of cells with a positive PLA signal | Substance
1 | 52% | NudC (from UniProt Q9Y266 1-331) (natural protein)
2 | 37% | Progesterone-induced-blocking factor 1 PIBF1 (from UniProt Q8WXW3 1-757) (natural protein)
3 | 73% | Pericentriolar material 1 protein PCM1 (from UniProt Q15154 1-2024) (natural protein)

— article PMC9867282
